Experimental data: patent publication EP0571085A1 (BAYLOR COLLEGE OF MEDICINE, dated 1993)

B1: human creatine kinase M subunit (wild-type) (enzyme)
chain: not shown
notes: One subunit (monomer) that associates into dimers; Tested in crude detergent extracts of transfected COS cells; also called M creatine kinase; M CK
B2: human creatine kinase B subunit (wild-type) (enzyme)
chain: not shown
notes: One subunit (monomer) that associates into dimers; Tested in crude detergent extracts of transfected COS cells; also called B creatine kinase; B CK

Experiments:
[1] = molecular target: the molecule itself; experiment: nondenaturing electrophoresis of extracts of COS cells cotransfected with M, mutant M and B constructs (dimer formation)
[2] = molecular target: B1; experiment: nondenaturing electrophoresis of extracts of COS cells cotransfected with all three constructs
[3] = molecular target: the molecule itself; experiment: nondenaturing electrophoresis of extracts of COS cells cotransfected with M, B and lys⁻M constructs

Binder	binding result [1]	binding result [2]	binding result [3]
B1	binds	–	–
B2	–	binds	binds
